Source: patent US9605038B2, “Fusion peptide comprising dhFas-1 domain and MMP substrate and use thereof for preventing and treating rheumatoid arthritis” (Kyungpook National University Industry-Academic Cooperation …, priority 2010, dated 2017)
Positions count from the first letter of the chain named. Entries after “also recorded” stand apart in the source; their conditions may differ.

Key:
[1] = test system: human fibroblast (NIH3T3); test: Cell adhesion test on human βig-h3 coated plate (hsdhFas-1); assay type: cell-based; conditions: human βig-h3 5 ug/ml coat, FIG. 3
Procedure: (§1) Human βig-h3 was introduced into a 96-well plate at a concentration of 5 ug/ml, and coated for 14 hours at 4° C. In DMEM+0.5% BSA (Bovine Serum Albumin) culture medium, human fibroblast (NIH3T3) was introduced, and hsdhFas-1 peptide at concentrations was injected thereto, followed by mixing. The resultant mixture was cultured at 37° C. for 30 minutes, and plated on a coated well. It was cultured for 2 hours, and washed with PBS (phosphate buffered saline) so as to remove unattached cells, and then added with a substrate (4-Nitrophenyl N-acetyl-β-D-glucosaminide, Sigma, U.S.) to be activated by β-N-acetylglucosaminidase within the cell, followed by culturing at 37° C. for 1 hour. Then, a glycine EDTA solution (0.5M EDTA, 50 mM glycine, pH 10.4) was added thereto, and the coloring extent according to the number of attached cells was measured by absorbance.

[2] = test system: NIH3T3; test: βig-h3-mediated cell migration test (transwell), NIH3T3; assay type: cell-based, mouse; conditions: 7 hours
Procedure: In the lower compartment of a transwell filter having an 8 um hole size allowing cells to be migrated, βig-h3 was cultured at 4° C. for 12 to 14 hours and coated. In DMEM+0.5% BSA culture medium, NIH3T3 was introduced, and administered with MFK23, MFK24 or MFK25 at concentrations, followed by mixing. The resultant mixture was cultured at 37° C. for 30 minutes, inoculated into the upper chamber of the coated well, and cultured for 7 hours at 37° C. Then, the cells migrated to the lower compartment of the filter were fixed by paraformaldehyde, and strained by a crystal violet. The cells […] remaining in the upper chamber were wiped out and the number of cells migrated to the lower compartment was microscopically counted.

[3] = test system: collagen-induced arthritis (CIA) mouse model; test: Arthritis therapeutic effect in CIA mouse (clinical arthritis index); assay type: in vivo
Procedure: A CIA mouse model having the similar characteristic to that of human rheumatoid arthritis was prepared according to the description in a known literature (Protocol for the successful induction of collagen-induced arthritis (CIA) and collagen antibody-induced arthritis (CAIA) in mice. Chondrex, Redmond, Wash.): Bovine type 2 collagen 100 ug was mixed with Freund's complete adjuvant, and hypodermically inoculated into the tail of the mouse. After 3 weeks, bovine type 2 collagen 100 ug was mixed with Freund's incomplete adjuvant, and inoculated again into the tail of the mouse. Then, the mouse was used in the experiment.
In order to find out the therapeutic effect of arthritis in a CIA model, for four weeks from the onset (the 23rd day) of arthritis following the second injection of the bovine type 2 collagen, MFK23 or MFK24 was daily injected into the abdominal cavity in doses of 0.1 mg/kg, 1 mg/kg, 10 mg/kg and 30 mg/kg. As a control group, the same amount of PBS was injected into the abdominal cavity. From the 23rd day to the 50th day, by using a Clinical arthritis index, the severity of arthritis was daily determined. The determination was based on the following data.
0; no symptom, 1; edema in one articulation or light edema, 2; severe edema in 2 or more articulations, 3; severe edema in most articulations, 4; severe edema in the whole of legs.

[4] = test system: foot tissue of CIA mouse (Synovial membrane, cartilage, bones; CD31, ICAM-1); test: Histologic and immunohistochemistry test on foot tissue of CIA mouse; assay type: in vivo; conditions: CIA mouse, 50th day
Procedure: In order to determine the action mechanism of an arthritis therapeutic effect in a CIA model, on the 50th day following the second injection of the bovine type 2 collagen (after 4 weeks from the onset (the 23rd day) of arthritis following the second injection of the bovine type 2 collagen), foot tissues of treatment groups were separated and subjected to histologic analysis. Then, in the tissues, a change in the expression of inflammatory mediators was examined.
A tissue sample was prepared by the following process. Skin on the foot tissue was removed. Then, the tissue was fixed in 10% formalin solution for 2 days, and demineralized in 10% EDTA solution. The demineralized tissue was subjected to a dehydrating process and a clearing process, paraffin-embedded, and was made into a fragment with a thickness of 3 um by a microtome. The tissue fragment was deparaffinized and re-dehydrated by 100% xylene and ethanol, and then non-specific peroxidase within the tissue was blocked by a solution of 0.3% hydrogen peroxide dissolved in 100% methanol.
In order to carry out an immunohistochemistry test, binding of non-specific protein was blocked by 5% BSA. Then, the tissue was cultured, together with each primary antibody (as endothelial cell markers, an antibody to CD31, and an antibody to ICAM-1 (intercellular adhesion molecule-1)), at 4° C. for 12 to 14 hours, and washed with washing buffer (0.1% BSA, 0.2% gelatin, 0.05% saponin). It was cultured together with a secondary antibody labeled with biotin at room temperature for 30 minutes, was washed, reacted with Vectastatin ABC kit (Vector Laboratories, U.S.), and was mounted with Eukitt mounting media (Fluka, Germany) for observation.

[5] = test system: mouse fibroblast (NIH3T3); test: βig-h3-mediated cell adhesion test, NIH3T3; assay type: cell-based; conditions: NIH3T3, βig-h3 5 ug/ml coat
Procedure: as §1
Also, a structurally modified peptide of a fas-1 domain of mouse βig-h3 was synthesized as a recombinant peptide (hereinafter, referred to as ‘mdhFas-1peptide’, see FIG. 2), and a mouse cell line, that is, NIH3T3 cell line, was used to test the inhibiting effect by mdhFas-1 peptide on adhesion and migration of a Synovial membrane cell in the same manner as that in the test using human βig-h3.
as §1, with “βig-h3” for “Human βig-h3”, “mouse” for “human”, “MFK23, MFK24, MFK25 or MFK27” for “hsdhFas-1 peptide”

[6] = test system: TNF-a, RANKL, IL-1β, CCL-2, MMP-1, MMP-3, IL-6, VCAM-1; test: Semiquantitative reverse transcription PCR of inflammatory mediators in CIA mouse foot tissue; assay type: in vivo; conditions: CIA mouse, 30 mg/kg, FIG. 26
Procedure: The distribution of inflammation in the foot tissue may be somewhat differently observed according to the regions, and its quantitative research is difficult. Thus, in the hind leg of a mouse CIA model treated with MFK24, the change in inflammatory mediators according to the onset of arthritis was measured by a semiquantitative reverse transcription PCR method using a Taqman probe, as described below.
From a mouse CIA model, a foot tissue was separated, and its skin was removed. The remaining tissue was grinded by a tissue homogenizer, and an extraction reagent (Easy-spim™, Intron) was used to extract all RNAs. They were quantified, and for 7 μg of RNA, a reverse transcriptase reaction was carried out by using AMV reverse transcriptase (Roche, 0.5 ul), oligo dT (Roche, 1 ul), and 10 mM dNTP (Takara, 2 ul) RNase inhibitor (Roche, 0.1 ul). For TNF-a, RANKL, IL-1β, CCL-2, MMP-1, MMP-3, IL-6, VCAM-1 and 18S RNA of a mouse, semiquantitative PCR was performed by using primers (Bioneer, Daejeon) and a Taqman probe (Roche, Germany) in LC480 (Roche, Germany), so as to determine the number of transcripts. Quantitative analysis of the transcripts was performed through comparison with 18S RNA transcripts. The primer pairs for the semiquantitative PCR are noted in [table8].

[7] = Toxicity test in CIA mouse (weight, serologic test, blood test); conditions: CIA mouse, 22nd day vs 48th day
Procedure: On the 48th day, a serologic test and a blood test were carried out.

[8] = test system: ICAM-1 and RANKL; test: Immunoblot of ICAM-1 and RANKL in CIA mouse model; assay type: in vivo; conditions: 30 mg/kg, FIG. 27
[9] = test system: human fibroblast-like synovicyte (FLS); test: βig-h3-mediated cell adhesion test, FLS; assay type: cell-based
Procedure: as §1, with “βig-h3” for “Human βig-h3”, “fibroblast-like synovicyte (FLS)” for “fibroblast (NIH3T3)”, “HsFJ24, HsFJ25 or HsFJ27” for “hsdhFas-1 peptide”

B1: hsdhFas-1: peptide prepared by removing H1 and H2 regions from the fourth fas-1 domain of human βig-h3 (protein)
chain: RALPPRERSRLLGDAKELANILKYHIGDEILVSGGIGALVRLKSLQGDKLEVSLKNNVVSVNKEPVAEPDIM
modifications: hsdhFas-1
notes: peptide prepared by removing H1 and H2 regions from the fourth fas-1 domain of human βig-h3
For B1, the βig-h3-mediated adhesion [1] was “concentration-dependently inhibited” and the βig-h3-mediated cell migration [2] was “concentration-dependently inhibited”.

B2: MFK12: a peptide having mdhFas-1 (as a basic structure) linked to an RGDSP (SEQ ID NO: 9) peptide (protein)
chain: QAMPPEELNKLLANAKELTNILKYHIGDEILVSGGIGALVRLKSLQGDKLEVSSKNNVVSVNKEPVAETDIMEFGGRGDSPDDDDDLE
modifications: MFK12
In the case of B2, the “arthritis inhibition (clinical arthritis index)” value ([3]; 10 mg/kg daily) is reported as “about 27%”, the “arthritis inhibition (clinical arthritis index)” value ([3]; 30 mg/kg daily) is reported as “about 60%” and the “arthritis inhibiting effect (clinical arthritis index), in words” value ([3]; daily into the abdominal cavity) is reported as “concentration-dependently inhibited”. The “proliferation of Synovial membrane tissue cells” value ([4]; 10 mg/kg) was “hyper-proliferated”, the “state of the articulation region” value ([4]; 10 mg/kg) was “the articulation region was destroyed” and the “vascularization induction and cell adhesion protein expression (CD31, ICAM-1)” value ([4]; 10 mg/kg) was “increased as much as that in the control group”. The “proliferation of Synovial membrane tissue cells” value ([4]; 30 mg/kg) was “inhibited compared to that in the control group”, the “shape of the foot tissue” value ([4]; 30 mg/kg) was “nearly normal” and the “vascularization induction and adhesion protein expression (CD31, ICAM-1)” value ([4]; 30 mg/kg) was “reduced”. For the same molecule, the βig-h3-mediated cell adhesion [5] was “inhibited the adhesion and migration of a cell even at a lower concentration than that in Comparative Example 1; also recorded: concentration-dependently inhibited”, the “expression levels of TNF-a, IL-6, IL-1β, ICAM-1, and RANKL vs arthritis control group” value [6] was “reduced levels” and the “body weight change compared to control group” value [7] was “abnormal findings in the weight change were not observed”. For the same molecule, the “expression levels of ICAM-1 and RANKL vs arthritis control group” value [8] was “reduced levels” and the βig-h3-mediated cell migration [2] was “inhibited the adhesion and migration of a cell even at a lower concentration than that in Comparative Example 1; also recorded: concentration-dependently inhibited”.

B3: HsFJ24: fusion peptide having sequential links of hsdhFas-1, MMP1 substrate GPQGIAG (SEQ ID NO: 6), and QERGDSLA (SEQ ID NO: 10) (protein)
chain: RALPPRERSRLLGDAKELANILKYHIGDEILVSGGIGALVRLKSLQGDKLEVSLKNNVVSVNKEPVAEPDIMEFGPQGIAGVDGQERGDSLAGLE
modifications: hsFJ24
With B3 the “βig-h3-mediated adhesion of FLS” value [9] was “concentration-dependently inhibited”.

B4: HsFJ25: fusion peptide having sequential links of hsdhFas-1, MMP consensus substrate GPLGIAG (SEQ ID NO: 7), and QERGDSLA (SEQ ID NO: 10) (protein)
chain: B3 chain with Q77L
modifications: hsFj25
In the case of B4, the “βig-h3-mediated adhesion of FLS” value [9] is reported as “concentration-dependently inhibited”.

B5: HsFJ27: fusion peptide having sequential links of hsdhFas-1, MMP3 substrate GPLGLWARG (SEQ ID NO: 8), and QERGDSLA (SEQ ID NO: 10) (protein)
chain: MALFVRLLALALALALGPAATLARSFRALPPRERSRLLGDAKELANILKYHIGDEILVSGGIGALVRLKSLQGDKLEVSLKNNVVSVNKEPVAEPDIMEFGPLGLWARGVDQERGDSLAGLE
modifications: hsFJ27
With B5 the “βig-h3-mediated adhesion of FLS” value [9] was “concentration-dependently inhibited”.
